Tests used:
MS2 coat protein [1] = experiment: apparent KD of MS2 coat protein, switch OFF state (with FMN for OFF switches, without FMN for ON switches); designed switch direction (-1 OFF switch, 1 ON switch): -1; higher = weaker reporter binding; conditions: FMN input: 0 or 200 uM; Eterna round: R93 (includes R88 designs)
In short: (§1)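 Apparent KD stands for the median, per design, of fits to normalised cluster binding curves. The curves came from titrating on-chip-transcribed RNA switches on Illumina sequencing clusters with SNAP-549-labelled MS2 coat protein, twofold from 0.7 or 1.5 nM to 3 µM. Buffer was 100 mM Tris-HCl pH 7.5, 80 mM KCl, 4 mM MgCl2, without or with constant ligand.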

MS2 coat protein [2] = experiment: apparent KD of MS2 coat protein, switch ON state; designed switch direction (-1 OFF switch, 1 ON switch): -1; higher = weaker reporter binding; conditions: FMN input: 0 or 200 uM; Eterna round: R93 (includes R88 designs)
In short: as §1

Row | Sequence | apparent KD of MS2 coat protein (MS2 coat protein [1]) | apparent KD of MS2 coat protein (MS2 coat protein [2])
1 | AGUUGGCGAGGAUAUACAUGAGGAUCACCCAUGUGAGAGAAAUAAGUGAGAAAGAAAAGUAGAAGGCGCUCACA [JL Lego Mod 17] | 47.4 nM | 68 nM
2 | AGCUAGUCAGGAUAUACGAAAAUGUCAGAGGCAGUAAGGGAACAUGAGGAUCACCCAUGUAGAAGGGACUAGCA [Diamond 40] | 87.7 nM | 36.1 nM
3 | AAAGGACGAGGAUAUACAUGAGGAUCACCCAUGUAAAAAACGUAAUAAAAUAACUUAUGUAGAAGGCGUCCAAA [Mat - Exclusion 3 - Eli mod - D98] | 214 nM | 26.3 nM
4 | AAGAACGGAGGAUAUACAUGAGGAUCACCCAUGUAAAAGAAAGAAGGGAAAGAGAAAAGUAGAAGGCCGAAGAA [Usermaatre-setepenamun Pedubast] | 50.8 nM | 28.1 nM
5 | AAAAAACAUGAGGAUCACCCAUGUCAGGAUAUGCUCAGCAAAAAAAAAAAAAAGAACGGUAGAAGGGACAGAAA [Bilbo Confounded 22 - Jieux - Exclusion 1] | 50.7 nM | 56.1 nM
6 | CUCUUGUGAGGAUAUGAAAGAAAAGAAAAGAAAGAAAAGAAUCAGAAGGCACAUGAGGAUCACCCAUGUAAGAA [EteRNA is fun!] | 79.7 nM | 37 nM
7 | AACAGUACAGGAUAUACAUGAGGAUCACCCAUGUAAAGGGAAUAAAACUAAAAUAAAAGUAGAAGGGUACUGGA [Moding Maslow revisited (73) 20] | 92.6 nM | 50.9 nM
8 | AAACUACUAGGAUAUACAACGGUGUCCUAACUACUAAGAAGACAUGAGGAUCACCCAUGUAGAAGGAGUAGUGA [Sosogeen] | 37.8 nM | 50.3 nM
9 | AACAGACAUGAGGAUCACCCAUGUGAGGAUAUCCAAAACGAUAAAACAAGAAUGACAGGGAGAAGGCACAGCAA [JR_Exc001_Sub008] | 52.2 nM | 65.2 nM
10 | AGAAAGUGAGGAUAUACGAAACCAGCCUAAAUGGCUGGAAAGUAGAAGGCACAUGAGGAUCACCCAUGUAAAGA [Ex4 sub 1] | 43.4 nM | 32.3 nM
11 | AAGAAACAUGAGGAUCACCCAUGUGAGGAUAUCGAAAAGAAAAGAAAAGAAAGAAGAAUGAGAAGGCACAAAGG [Shed—] | 29.8 nM | 30.9 nM
12 | AACAGGUUAGGAUAUAUGUAACAAAUAAAAAAAAUAUAAACAUAGAAGGAACAUGAGGAUCACCCAUGUUAACA [May 29] | 19.4 nM | 29.7 nM
13 | AAAAAUGGAGGAUAUACAUGAGGAUCACCCAUGUGUGACUAUACUAAGCGCUCCUCAGGUAGAAGGCCAAAAAA [Gilly Gone Silly 16 - Jieux - Exclusion 3] | 99.5 nM | 83.5 nM
14 | AAGAACCAAGGAUAUACAAAAUAAAAGAAAAGAAAGAAAGAACAUGAGGAUCACCCAUGUAGAAGGUGGAAGAA [Khaankhre Sobekhotep] | 41.6 nM | 47.7 nM
15 | CAACAGUCAGGAUAUGCAAAAAAAACGCAACGCAAAAAAAAGCAGAAGGGACAUGAGGAUCACCCAUGUUGUCG [Exclusion4-03] | 22.9 nM | 29.5 nM
16 | AGUUGGCGAGGAUAUACAUGAGGAUCACCCAUGUAAAAUAAAUAAAAAAUAAGGGAAAGUAGAAGGCGCUGACA [73%, Moding Norbert Elias, 14] | 112 nM | 46.5 nM
17 | GAAAAGUCAGGAUAUGUGGAAAAAAUAAAAAAAAUAAAAACACAGAAGGGACAUGAGGAUCACCCAUGUUAAAA [Mat - Exclusion 4 - Mayanna - D137] | 28.8 nM | 52.4 nM

Row | Sequence | apparent KD of MS2 coat protein (MS2 coat protein [1]) | apparent KD of MS2 coat protein (MS2 coat protein [2])
18 | GGUUGGGUAGGAUAUACAUGAGGAUCACCCAUGUGAGAGAAAAAAGUGAGAAAGAAAAGUAGAAGGGCUUGACG [salish99-ex3-67] | 58.7 nM | 80.3 nM
19 | AAGAACUCAGGAUAUACUAAAGAAAUGAAAAGAAAGAAAGAACAUGAGGAUCACCCAUGUAGAAGGGAGAAGAA [Qareh Khawoserre] | 35.4 nM | 86.4 nM
20 | CCGAGACAUGAGGAUCACCCAUGUGAGGAUAUAGGUGUAUGCUAAAAAAAGUUAACAACUAGAAGGCACAGAGG [JR_Exc001_Sub308] | 129 nM | 55.7 nM
21 | GAAAAACAUGAGGAUCACCCAUGUAAGGAUAUGCUGAAAAACACGGAAAAAACGUGCAGCAGAAGGUACAAAAA [Mat - Exclusion 1 - Eli mod - D92] | 28.1 nM | 15.8 nM
22 | AAGAACUCAGGAUAUACAUGAAAGAAAGAAAAGAAAAGAAAACAUGAGGAUCACCCAUGUAGAAGGGAGAAGAA [EteRNA is fun!] | 30.6 nM | 39.7 nM
23 | AACAGACAUGAGGAUCACCCAUGUGAGGAUAUCCCAAUCGAUAGAACUAGAAUGACAAGGAGAAGGCACAGCAA [JR_Exc001_Sub005] | 70.1 nM | 70.1 nM
24 | GAAAAGUCAGGAUAUGUGGAAAAAAUAAAAAAAAUAAAAACACAGAAGGGACAUGAGGAUCACCCAUGUAAAAG [Mat - Exclusion 4 - Mayanna - D141] | 62.2 nM | 101 nM
25 | AAAAAACAUGAGGAUCACCCAUGUCAGGAUAUACAAAAAUAAAUAAAAAUAAAAUAAAGUAGAAGGGACAAAAA [May 9] | 36.9 nM | 28.9 nM
26 | GAAAAUCGAGGAUAUACAUGAGGAUCACCCAUGUCAAAAAAUGACUACACAAAAGAAAGUAGAAGGCGAUAAAG [Mat - Exclusion 3 - Mayanna mod - D130] | 31.2 nM | 28.8 nM
27 | AAAGUGUGAGGAUAUGUCAAAGGUCACGAAAGUGACAAAGGACAGAAGGUACAUGAGGAUCACCCAUGUAAAAA [65% + different segment] | 32 nM | 39.8 nM
28 | AAGAAGUGAGGAUAUGUAUCAGUAUAGUUGCCUAUACUGAUGUAGAAGGCACAUGAGGAUCACCCAUGUCCUAA [Exclusion4-cac1] | 30.8 nM | 21.7 nM
29 | AGCUAGCAAGGAUAUGCGAACAUGUCAAAAGACGUGAAGGGACAUGAGGAUCACCCAUGUAGAAGGUGCUAGCA [JL 74% mod 9] | 27.6 nM | 35.7 nM
30 | AGGGAGUCAGGAUAUCGGAAAAAAAAACAACGAAAAAAAGACGAGAAGGGACAUGAGGAUCACCCAUGUAAGAA [milkweed 16] | 23.5 nM | 41.4 nM
31 | GGAUGCCUAGGAUAUACAUGAGGAUCACCCAUGUGAGAGAAAAAAGUGAGAAAGAAAAGUAGAAGGAGGUGUCG [salish99-ex3-91] | 92.4 nM | 38 nM
32 | AAGACUACAGGAUAUACAUGAGGAUCACCCAUGUAACUGACGGAUAGAUGACGGAGAAGUAGAAGGGUAGUCAA [Ruby 38] | 26.4 nM | 16.9 nM
33 | AAAUGACAUGAGGAUCACCCAUGUCAGGAUAUGACUUGAAAAAAAAAAAAAAAACAUGUCAGAAGGGACAUGAA [Design 48: Sub-opt E] | 16.8 nM | 17.2 nM
34 | AAGAAGGAAGGAUAUACAUGAAAGAAAGAAAAGAAAAGAAAACAUGAGGAUCACCCAUGUAGAAGGUCCUAGAA [EteRNA is fun!] | 80.5 nM | 39.6 nM
